Results published in patent publication US20260035452A1 (THE UNIVERSITY OF BIRMINGHAM, priority 2022, published 2026).
Marks after values point to notes of the source that are not given here.

Key:
[1] = Haematological investigations; format: in vivo; settings: mice, 100 μg/mouse
Description: To assess the neutralising activity of Ab-IPL-IL-17™, CD-1 mice were injected i.p. with 100 μg/mouse of Ab-IPL-IL-17™, MAB421 or secukinumab as positive controls. After 30 min, an i.p. injection of 10 μg/mouse of IL-17A, IL-17F or IL-17A/F heterodimer was administered. After 2 h blood was collected by intracardiac puncture and serum levels of (A) IL-17A, (B) IL-17F or (C) IL-17A/F heterodimer were quantified by Elisa. (C-F) For the evaluation of immunogenic effects CD-1 mice were injected i.p. with 100 μg of IgG1 isotype antibody (vehicle) or IL-17 neutralising antibodies (bimekizumab, secukinumab, MAB421 or Ab-IPL-IL-17™). In the selected time-point (2 h, 24 h, 72 h, 7 days, 14 days and 21 days) total IgG, IgG1, lymphocytes and platelets levels were determined by Elisa and haematological blood count test, respectively. Data are presented as mean±S.D. for n=5 mice per group. Statistical analysis was conducted by one or two-way ANOVA followed by Bonferroni's for multiple comparisons. *P≤0.05, **P≤0.01, ***P≤0.001 vs IL-17 group; ^#P≤0.05, ^##P≤0.01, ^###P≤0.001, ^####P≤0.0001 vs vehicle group.
Standard laboratory procedures were used for blood sampling and measurements (95). Haematological investigations, for all experimental conditions, including blood count test, leukocyte, and sidereal formula were performed on citrated and not-anticoagulated blood samples, respectively. Serological tests were performed by CELL-DYN Sapphire purchased from Abbott S.R.L. (Milan, Italy). All procedures were conducted under strictly aseptic conditions.
Standard laboratory procedures were used for blood sampling and measurements. Haematological investigations, for all experimental conditions, including blood count test, leukocyte, and sidereal formula were performed on citrated and not-anticoagulated blood samples, respectively. Serological tests were performed by CELL-DYN Sapphire purchased from Abbott S.R.L. (Milan, Italy). All procedures were conducted under strictly aseptic conditions.

[2] = test system: patients; settings: cited from earlier work

In the case of “Bimekizumab: IL-17 neutralising antibody (reference)”, the “GRA (Granulocytes)” value ([1]; 2 h) is reported as 0.24 ± 0.11 10^3/μL, the “HCT (Hematocrit)” value ([1]; 2 h) is reported as 29.96 ± 2.29% and the “HGB (Hemoglobin)” value ([1]; 2 h) is reported as 9.88 ± 1.02 g/dL. The “MCH (Mean Corpuscular Hemoglobin)” value ([1]; 2 h) was 16.98 ± 1.38 pg, the “MCV (Mean Cell Volume)” value ([1]; 2 h) was 61.22 ± 5.70 fL and the MHCH ([1]; 2 h) was 30.00 ± 3.06 g/dL. The MID ([1]; 2 h) was 0.36 ± 0.24 10^3/μL, the “MPV (Mean Platelet Volume)” value ([1]; 2 h) was 4.64 ± 0.86 fL and the “PCT (Plateletcrit)” value ([1]; 2 h) was 0.26 ± 0.07%. The “PWD (Platelet Distribution Width)” value ([1]; 2 h) was 16.80 ± 1.42%, the “RBC (Red Blood Cells)” value ([1]; 2 h) was 5.84 ± 1.62 10^6/μL and the “RDW (Red blood cells Distribution Width)” value ([1]; 2 h) was 18.82 ± 1.75%. For the same substance, the “WBC (White Blood Cells)” value ([1]; 2 h) was 3.90 ± 0.91 10^3/μL, the “GRA (Granulocytes)” value ([1]; 24 h) was 0.22 ± 0.16 10^3/μL and the “HCT (Hematocrit)” value ([1]; 24 h) was 29.56 ± 2.16%. The “HGB (Hemoglobin)” value ([1]; 24 h) was 9.08 ± 1.55 g/dL, the “MCH (Mean Corpuscular Hemoglobin)” value ([1]; 24 h) was 18.92 ± 1.42 pg and the “MCV (Mean Cell Volume)” value ([1]; 24 h) was 62.32 ± 10.33 fL. The MHCH ([1]; 24 h) was 30.70 ± 3.18 g/dL, the MID ([1]; 24 h) was 0.42 ± 0.31 10^3/μL and the “MPV (Mean Platelet Volume)” value ([1]; 24 h) was 5.00 ± 1.12 fL. The “PCT (Plateletcrit)” value ([1]; 24 h) was 0.26 ± 0.06%, the “PWD (Platelet Distribution Width)” value ([1]; 24 h) was 16.04 ± 1.30% and the “RBC (Red Blood Cells)” value ([1]; 24 h) was 4.63 ± 0.99 10^6/μL. The “RDW (Red blood cells Distribution Width)” value ([1]; 24 h) was 18.42 ± 1.18%, the “WBC (White Blood Cells)” value ([1]; 24 h) was 4.60 ± 1.70 10^3/μL and the “GRA (Granulocytes)” value ([1]; 72 h) was 0.30 ± 0.10 10^3/μL. For the same substance, the “HCT (Hematocrit)” value ([1]; 72 h) was 22.04 ± 4.37** %, the “HGB (Hemoglobin)” value ([1]; 72 h) was 7.10 ± 1.38* g/dL and the “MCH (Mean Corpuscular Hemoglobin)” value ([1]; 72 h) was 21.46 ± 2.04* pg. The “MCV (Mean Cell Volume)” value ([1]; 72 h) was 80.98 ± 9.17 fL, the MHCH ([1]; 72 h) was 30.62 ± 5.57 g/dL and the MID ([1]; 72 h) was 0.42 ± 0.22 10^3/μL. The “MPV (Mean Platelet Volume)” value ([1]; 72 h) was 7.96 ± 1.95**** fL, the “PCT (Plateletcrit)” value ([1]; 72 h) was 0.17 ± 0.03% and the “PWD (Platelet Distribution Width)” value ([1]; 72 h) was 17.94 ± 2.99%. The “RBC (Red Blood Cells)” value ([1]; 72 h) was 3.79 ± 1.02* 10^6/μL, the “RDW (Red blood cells Distribution Width)” value ([1]; 72 h) was 17.12 ± 2.05% and the “WBC (White Blood Cells)” value ([1]; 72 h) was 4.84 ± 2.49 10^3/μL. The “GRA (Granulocytes)” value ([1]; 7 d) was 0.26 ± 0.11 10^3/μL, the “HCT (Hematocrit)” value ([1]; 7 d) was 22.48 ± 3.74* % and the “HGB (Hemoglobin)” value ([1]; 7 d) was 8.10 ± 1.33 g/dL. For the same substance, the “MCH (Mean Corpuscular Hemoglobin)” value ([1]; 7 d) was 21.22 ± 3.74 pg, the “MCV (Mean Cell Volume)” value ([1]; 7 d) was 72.78 ± 8.77 fL and the MHCH ([1]; 7 d) was 29.36 ± 5.05 g/dL. For the same substance, the MID ([1]; 7 d) was 0.46 ± 0.18 10^3/μL, the “MPV (Mean Platelet Volume)” value ([1]; 7 d) was 6.78 ± 1.09* fL and the “PCT (Plateletcrit)” value ([1]; 7 d) was 0.22 ± 0.07%. The “PWD (Platelet Distribution Width)” value ([1]; 7 d) was 16.04 ± 2.71%, the “RBC (Red Blood Cells)” value ([1]; 7 d) was 4.18 ± 0.93 10^6/μL and the “RDW (Red blood cells Distribution Width)” value ([1]; 7 d) was 18.14 ± 3.00%. For the same substance, the “WBC (White Blood Cells)” value ([1]; 7 d) was 5.08 ± 1.37 10^3/μL, the “GRA (Granulocytes)” value ([1]; 14 d) was 0.20 ± 0.12 10^3/μL and the “HCT (Hematocrit)” value ([1]; 14 d) was 28.36 ± 3.19%. The “HGB (Hemoglobin)” value ([1]; 14 d) was 9.06 ± 1.84 g/dL, the “MCH (Mean Corpuscular Hemoglobin)” value ([1]; 14 d) was 17.48 ± 1.38 pg and the “MCV (Mean Cell Volume)” value ([1]; 14 d) was 61.10 ± 9.83 fL. The MHCH ([1]; 14 d) was 29.96 ± 4.45 g/dL, the MID ([1]; 14 d) was 0.40 ± 0.10 10^3/μL and the “MPV (Mean Platelet Volume)” value ([1]; 14 d) was 5.66 ± 0.92 fL. For the same substance, the “PCT (Plateletcrit)” value ([1]; 14 d) was 0.26 ± 0.05%, the “PWD (Platelet Distribution Width)” value ([1]; 14 d) was 16.02 ± 1.63% and the “RBC (Red Blood Cells)” value ([1]; 14 d) was 5.81 ± 1.41 10^6/μL. The “RDW (Red blood cells Distribution Width)” value ([1]; 14 d) was 18.26 ± 2.28%, the “WBC (White Blood Cells)” value ([1]; 14 d) was 3.00 ± 0.68 10^3/μL and the “GRA (Granulocytes)” value ([1]; 21 d) was 0.22 ± 0.13 10^3/μL. The “HCT (Hematocrit)” value ([1]; 21 d) was 29.20 ± 2.70%, the “HGB (Hemoglobin)” value ([1]; 21 d) was 10.06 ± 1.27 g/dL and the “MCH (Mean Corpuscular Hemoglobin)” value ([1]; 21 d) was 17.96 ± 1.57 pg. The “MCV (Mean Cell Volume)” value ([1]; 21 d) was 62.92 ± 6.53 fL, the MHCH ([1]; 21 d) was 30.50 ± 4.52 g/dL and the MID ([1]; 21 d) was 0.32 ± 0.16 10^3/μL. For the same substance, the “MPV (Mean Platelet Volume)” value ([1]; 21 d) was 5.02 ± 0.76 fL, the “PCT (Plateletcrit)” value ([1]; 21 d) was 0.28 ± 0.03% and the “PWD (Platelet Distribution Width)” value ([1]; 21 d) was 16.24 ± 1.83%. The “RBC (Red Blood Cells)” value ([1]; 21 d) was 6.37 ± 1.11 10^6/μL, the “RDW (Red blood cells Distribution Width)” value ([1]; 21 d) was 18.02 ± 1.34% and the “WBC (White Blood Cells)” value ([1]; 21 d) was 3.32 ± 1.18 10^3/μL.

For “brodalumab: licensed mAb in the IL-17-IL-17R pathway”, the “side effect: intestinal inflammation” value ([2]; patients with IBD) is listed as “enhanced intestinal inflammation” and the “side effect: suicidal thoughts” value ([2]; some patients with psoriasis) is listed as “suicidal thoughts in some patients with psoriasis”.
